How the values were obtained:
[1] = biological target: Human Broccoli Ndc80-GFP complex (human) (UniProt O14777); experiment: fluorescence microscopy of microtubules on protein-coated beads (dynamic MT end-coupling assay); beads coated with Ndc80-GFP only (no CENP-E) via anti-GFP antibody; GMPCPP-stabilized MT seeds, then unlabeled soluble tubulin (6 µM) with 1 mM Mg-GTP; 32 °C
[2] = biological target: Xenopus laevis CENP-E-GFP construct (1–473 aa), truncated CENP-E motor (Xenopus laevis); experiment: fluorescence microscopy of microtubules on protein-coated beads (MT wall-to-end transition assay); GFP-tagged protein held on coverslip-immobilized 0.9 µm streptavidin beads via biotinylated anti-GFP antibody, one protein per bead; HiLyte647-labeled GMPCPP-stabilized MTs in solution; MTs added with 0.1 mM AMP-PNP, then imaging buffer with ATP; BRB80-based buffer; 32 °C; epifluorescence
[3] = biological target: Human Broccoli Ndc80-GFP complex (human) (UniProt O14777)

Chain of UniProt O14777 (O14777 whole entry, looked up, the tested form may be a part, one chain of several): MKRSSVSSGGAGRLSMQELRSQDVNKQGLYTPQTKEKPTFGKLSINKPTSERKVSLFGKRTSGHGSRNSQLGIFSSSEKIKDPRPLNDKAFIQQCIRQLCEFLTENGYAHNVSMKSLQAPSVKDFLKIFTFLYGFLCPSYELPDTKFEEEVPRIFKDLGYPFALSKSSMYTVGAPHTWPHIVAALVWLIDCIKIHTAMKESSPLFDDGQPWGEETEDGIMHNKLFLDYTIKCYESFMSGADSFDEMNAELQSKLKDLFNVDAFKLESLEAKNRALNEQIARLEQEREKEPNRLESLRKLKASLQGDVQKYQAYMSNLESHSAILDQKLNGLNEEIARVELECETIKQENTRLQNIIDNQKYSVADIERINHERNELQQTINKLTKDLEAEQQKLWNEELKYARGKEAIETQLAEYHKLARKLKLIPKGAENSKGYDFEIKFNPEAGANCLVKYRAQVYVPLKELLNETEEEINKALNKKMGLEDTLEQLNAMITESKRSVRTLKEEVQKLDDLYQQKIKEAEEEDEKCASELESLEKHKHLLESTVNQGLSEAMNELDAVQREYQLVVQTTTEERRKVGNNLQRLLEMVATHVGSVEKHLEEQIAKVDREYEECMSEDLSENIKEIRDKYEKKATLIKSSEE

Substance “Microtubules polymerised from bovine brain tubulin (from UniProt Q6B856 1-445) (complex)” has a percent of MT segments attached via their ends [1] of 3%, an MT end-retention time [2] of 1.1 min and a percent of MT plus-ends retained at the bead [2] of 24%. It also gave a Kaplan–Meier survival of MT end-attachments on beads coated with CENP-E motor and Ndc80 Broccoli [3] greater than 28 min, an MT end-retention time on beads coated with CENP-E motor and Ndc80 Broccoli (wall-to-end transition assay) [3] of 18.1 min and a percent of MT plus-ends retained on beads coated with CENP-E motor and Ndc80 Broccoli (wall-to-end transition assay) [3] of 80%.
